Results from PMC6032241, “UDP-Glucose 4-Epimerase and β-1,4-Galactosyltransferase from the Oyster Magallana gigas as Valuable Biocatalysts for the Production of Galactosylated Products” (International Journal of Molecular Sciences, 2018).

T1: MgGalT7 (Magallana gigas, UniProt Z9LX56G651)
T1 sequence (Z9LX56G651 34-312): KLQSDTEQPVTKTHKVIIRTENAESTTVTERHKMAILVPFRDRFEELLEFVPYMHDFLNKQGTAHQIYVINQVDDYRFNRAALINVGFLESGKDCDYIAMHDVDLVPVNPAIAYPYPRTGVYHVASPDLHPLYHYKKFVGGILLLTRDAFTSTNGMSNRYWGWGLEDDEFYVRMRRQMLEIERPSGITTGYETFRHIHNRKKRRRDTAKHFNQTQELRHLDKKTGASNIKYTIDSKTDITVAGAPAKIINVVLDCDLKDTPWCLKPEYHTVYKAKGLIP


Tests used:
[1] = target: T1, MgGalT7; experiment: coupled galactosylation with MgUGE, HPLC-ESI-MS; assay type: biochemical; details: acceptor 10 mM; 15 mM UDP-glucose converted to UDP-galactose by MgUGE, 1 mM MnCl2, 50 mM Tris-HCl pH 8.0, 37 °C, 24 h
[2] = substrate: O=c1ccn([C@@H]2O[C@H](COP(=O)(O)OP(=O)(O)O[C@H]3O[C@H](CO)[C@H](O)[C@H](O)[C@H]3O)[C@@H](O)[C@H]2O)c(=O)[nH]1; experiment: purified protein; assay type: biochemical, Magallana gigas; details: 50 mM Tris-HCl pH 8.0, 22 °C, UDP-galactose 10 µM to 2 mM

| Molecule | coupled galactosylation with MgUGE, HPLC-ESI-MS [1] | Km [2] [µM] | kcat [2] [s⁻¹] |
| --- | --- | --- | --- |
| O=[N+]([O-])c1ccc(O[C@H]2OC[C@@H](O)[C@H](O)[C@H]2O)cc1 [pNP-xylose] | (MgGalT7), allowing the galactosylation of the model substrate para-nitrophenol xylose (pNP-xylose) | – | – |
| MgUGE (Magallana gigas) (protein, forward primer encodes N-terminus MGDSCIL) MGDSCILVTGGAGFVGSHSVIELIEAGYSVVVMDNLANASMESIKRVEEITGKSIPSYSVDLLDKPALSDLFNKHKFTSVIHFAGLKAVGESCQLPLLYYKNNVGGTVNLLEVMKEKGVKNLIFSSSATVYGSPQYLPIDEKHPVGGCTNPYGKTKYFIEEILRDLHKAEPDWNIIMLRYFNPVGAHKSGKIGEDPQGIPNNLMPFIAQVAVGKRAELSVYGSDYDTPDGTGVRDYIHVVDLAQGHVAAQKKIEKKCGCKVYNLGTGKGYSVIEMAKAFEEASGKPIPFKKVDRRAGDVASVYGNADLAKEELGWSASRDLKQMCEDTWRWQSSNPNGFRK | – | 1600 ± 100 | 2.23 ± 0.2 |
